In the supplement of paper PMC10126150:
± gives the standard deviation of the averaged measurements.

System: ATP
Test: switch fluorescence ratio, 500 uM ATP over buffer (Cy3 cluster intensity, sum of 5 cycles each) (fold (ratio)); higher = stronger signal-on switching upon ATP binding; sequences stand for … in TCGTCGGCAGCGTCAGATGTGTATAAGAGACAGTTTTTTTTTTTTTTTTTTTTTTTTT…TC
Conditions: aptamer strand: ATP DNA aptamer (quencher-CACCTGGGGGAGTATTGCGGAGGAAGG + anchor), 100 nM annealed; ATP concentration: 500 uM
In short: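 The quencher-labelled ATP aptamer, at 100 nM, was annealed to Cy3-labelled switching-strand clusters on a modified Illumina MiSeq flow-cell. The clusters were imaged in selection buffer, then after 15 min with 500 uM ATP at 22 °C, and this buffer/ATP cycle ran five times with NaOH stripping and re-annealing between runs. Per-cluster fluorescence ratios, summed target-cycle over summed buffer-cycle Cy3 intensity, were averaged per switch-domain sequence. Clusters outside 100-1000 RFU were excluded.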
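Further: ATP exposure 15 min at 22 °C before imaging.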

Sequence | switch fluorescence ratio
GGAAAAGGCT | 1.02 ± 0.07
TGCTAGATAA | 1 ± 0.039
AGCGCCGGGG | 1.03 ± 0.015
GTTTTGGGCC | 1.02 ± 0.05
CAGTGTGAAT | 1 ± 0.021
TATAGAAGT | 1.002 ± 0.0015
TAATGGTCGG | 0.985 ± 0.053
CTTTTCGGGT | 0.964 ± 0.033
TAGGACTCGG | 0.989 ± 0.024
GGGGGTGTTG | 1 ± 0.04
TTTTGTTATA | 0.9783 ± 0.0036
GGAATGAAG | 1.012 ± 0.01
GTGTGTTGTC | 1.01 ± 0.02
ATTAGTAGGT | 0.976 ± 0.012
ACGCAGAACG | 1.36 ± 0.074
TTTTTTTTGA | 0.998 ± 0.017
CGCTTAGGTT | 1.06 ± 0.061
GTCAATTGGA | 0.992 ± 0.013
TTATATGTTG | 1.02 ± 0.026
GGTTCTGGCG | 0.992 ± 0.045
GATGTCTAGT | 0.983 ± 0.015
CATATTTA | 0.992 ± 0.02
ATTATGGCGA | 1.04 ± 0.023
CCACGCTCGC | 2.33 ± 0.21
TCGGGTGGGG | 1.01 ± 0.014
GTTCTAGTGT | 0.972 ± 0.04

Sequence | switch fluorescence ratio
GGGTTTGCAT | 1.02 ± 0.034
TAGTCTAGTG | 0.9812 ± 0.0066
TTCTGGCACA | 1.02 ± 0.029
CATCGAGCAA | 3.77 ± 3.5
TATCATAGCG | 1.01 ± 0.046
CCACTAGGGC | 1.09 ± 0.017
GTTTTTGGGG | 0.987 ± 0.055
TAAAGCGTAG | 0.998 ± 0.027
GATAATAAGT | 1.01 ± 0.016
CAGAGGGAGG | 1.02 ± 0.033
TTTCGAATTT | 1.02 ± 0.04
TATAAAGGGT | 1.02 ± 0.055
GGTGGAAGTA | 0.998 ± 0.064
ATATTGGGTT | 0.9708 ± 0.0074
CATGCACTAT | 1.08 ± 0.021
TGGTGGGAAT | 1.02 ± 0.011
TCAGGTGGGT | 1.22 ± 0.22
ATGGAGTTG | 0.994 ± 0.024
CTAGGGCTTC | 0.979 ± 0.02
TAGGGAAAAG | 0.99 ± 0.013
ACATAAAGGG | 1.03 ± 0.024
GCAATTTGGT | 1.03 ± 0.02
GTGTCAATTT | 1.13 ± 0.17
GATTTTGTTA | 1.01 ± 0.025
TGGGGGGATC | 1.009 ± 0.0082
TAATGTATTA | 1.01 ± 0.027

Sequence | switch fluorescence ratio
TCCAGGTGGG | 2.39 ± 0.19
CATGTGGGGT | 0.992 ± 0.034
GCGATTGGCT | 1.06 ± 0.018
TAGAGAGGGA | 1.04 ± 0.096
CTTAGGGGTC | 0.997 ± 0.026
TAGCCCTGCT | 1.033 ± 0.0087
ATTTGTGCAG | 0.954 ± 0.013
GGACTCAGGG | 1.03 ± 0.051
CGTGGTAAGG | 0.989 ± 0.026
ATCGTTCTGT | 0.966 ± 0.025
ACCCTGCGAG | 1.05 ± 0.032
TGTTGACTGA | 1.02 ± 0.023
TAGGTAGTCT | 1.02 ± 0.015
GAAGCTTGGG | 1.04 ± 0.025
CAATAGATGT | 1.042 ± 0.0021
TTCAGCAAT | 5.31 ± 0.8
TGGGTCGGCA | 1.05 ± 0.023
CGATAACTGG | 1.05 ± 0.052
GTGGGGGGGT | 0.992 ± 0.026
TCGGGGGTAT | 1.2 ± 0.36
TTCCGGGAAA | 0.968 ± 0.031
AAGAAGTGTA | 1.006 ± 0.0083
TATAAGGATG | 0.993 ± 0.019
TCTAGGACGT | 1.02 ± 0.019
AATTTGATGT | 1.005 ± 0.0056
GAATTAAATT | 1.01 ± 0.018

Sequence | switch fluorescence ratio
GAGTTAAAGT | 1.01 ± 0.014
GGTTTTCACC | 0.9866 ± 0.0065
CTAAAGACTC | 1.19 ± 0.046
AAGTCTGGGC | 1.01 ± 0.036
GATAGTGAGG | 0.9935 ± 0.0021
AGTAACCGGC | 0.967 ± 0.12
CCACCATTTT | 1.13 ± 0.12
TTTGCTGGAT | 1.08 ± 0.046
ATCCGAGTCA | 1.07 ± 0.014
CGCACCTGTA | 1.04 ± 0.037
GCTACCTGGA | 1.19 ± 0.016
AATAAGTTAA | 1 ± 0.026
TGCTTGGGTC | 1.01 ± 0.028
ATCTTAATG | 1.01 ± 0.05
AATTTTTCAT | 0.977 ± 0.028
TAAAGTCCGA | 1.014 ± 0.0028
CTGCGGCTGT | 1.02 ± 0.0053
CCAAGCTGAA | 1.22 ± 0.035
CTTGTATTGG | 1.03 ± 0.072
AAAATCTGGT | 1.03 ± 0.015
AGGAAGAACG | 1.04 ± 0.02
TCTTGCCGCT | 1.01 ± 0.061
GGGGGGGGGT | 1.01 ± 0.038
CTGGTCCGGA | 0.948 ± 0.0035
TTTCCCCTTT | 1.08 ± 0.15
ACAGTATGGG | 1.03 ± 0.021

Sequence | switch fluorescence ratio
GGGGATTCT | 0.9936 ± 0.0094
TTGTTACACA | 1.05 ± 0.043
GAGGGGTATC | 0.96 ± 0.045
AGTGCAAGAT | 1.08 ± 0.028
TGTATGATGG | 1.02 ± 0.031
TCGATGCGTG | 1.01 ± 0.011
TTTTCATTCA | 1.023 ± 0.0072
TATTGGGCCT | 1 ± 0.051
TTGGGTTATG | 1 ± 0.013
GCAAAATTTC | 1.02 ± 0.085
TGTGCTATTG | 0.983 ± 0.058
CGGCAGGGGA | 1.05 ± 0.051
ATCAGGGGTT | 1.34 ± 0.6
CGGTAGTTCG | 0.955 ± 0.038
ACATGTTGCC | 1.02 ± 0.0074
ATATTAGGGG | 1.01 ± 0.032
GACTTTTTGC | 0.933 ± 0.055
GGTACTTTTT | 1.07 ± 0.14
TGGTTTCAGA | 0.984 ± 0.019
ATGAGGGGCA | 0.98 ± 0.026
ATTGGCAAAA | 1.01 ± 0.035
GGGGAATGTG | 0.963 ± 0.013
GGCCGACTTG | 1 ± 0.043
GAAGGCTCCG | 1.04 ± 0.014
GGGGGATGGT | 0.978 ± 0.035
TTTGTCCGGT | 0.971 ± 0.018

Sequence | switch fluorescence ratio
TCCTTGGCTT | 1.47 ± 0.49
TATGTGGCT | 1.017 ± 0.0043
CAGGCCTGAC | 1.02 ± 0.061
GCTAATTGGG | 1.004 ± 0.0021
ATGTGGTACT | 0.979 ± 0.027
TAAACGGGCG | 0.983 ± 0.019
CAGATAGGGG | 1.12 ± 0.19
ATGTGATATG | 0.994 ± 0.042
GTTATTACGA | 1.005 ± 0.0041
GGAAGTTTAA | 1 ± 0.02
ACTTTGAATG | 1.02 ± 0.027
GTGATATAAG | 0.986 ± 0.031
AAACTCTGCG | 1.05 ± 0.026
GGATGTCTAG | 0.9885 ± 0.0037
GAAGCGGATG | 1.01 ± 0.031
GCTTCAGTAG | 1.11 ± 0.02
AAAAATGGGA | 0.962 ± 0.044
GTTCCAGTTT | 1.039 ± 0.006
TAAAGGTCAG | 0.996 ± 0.018
CGGGCGCGTG | 0.978 ± 0.053
TCTGTGTTGA | 1 ± 0.011
GACAGCTTGG | 1.0064 ± 9.5e-05
ACGTGTGGGG | 1.05 ± 0.034
